Biological target: plasminogen (UniProt P00747)
Chain of UniProt P00747 (P00747 20-810): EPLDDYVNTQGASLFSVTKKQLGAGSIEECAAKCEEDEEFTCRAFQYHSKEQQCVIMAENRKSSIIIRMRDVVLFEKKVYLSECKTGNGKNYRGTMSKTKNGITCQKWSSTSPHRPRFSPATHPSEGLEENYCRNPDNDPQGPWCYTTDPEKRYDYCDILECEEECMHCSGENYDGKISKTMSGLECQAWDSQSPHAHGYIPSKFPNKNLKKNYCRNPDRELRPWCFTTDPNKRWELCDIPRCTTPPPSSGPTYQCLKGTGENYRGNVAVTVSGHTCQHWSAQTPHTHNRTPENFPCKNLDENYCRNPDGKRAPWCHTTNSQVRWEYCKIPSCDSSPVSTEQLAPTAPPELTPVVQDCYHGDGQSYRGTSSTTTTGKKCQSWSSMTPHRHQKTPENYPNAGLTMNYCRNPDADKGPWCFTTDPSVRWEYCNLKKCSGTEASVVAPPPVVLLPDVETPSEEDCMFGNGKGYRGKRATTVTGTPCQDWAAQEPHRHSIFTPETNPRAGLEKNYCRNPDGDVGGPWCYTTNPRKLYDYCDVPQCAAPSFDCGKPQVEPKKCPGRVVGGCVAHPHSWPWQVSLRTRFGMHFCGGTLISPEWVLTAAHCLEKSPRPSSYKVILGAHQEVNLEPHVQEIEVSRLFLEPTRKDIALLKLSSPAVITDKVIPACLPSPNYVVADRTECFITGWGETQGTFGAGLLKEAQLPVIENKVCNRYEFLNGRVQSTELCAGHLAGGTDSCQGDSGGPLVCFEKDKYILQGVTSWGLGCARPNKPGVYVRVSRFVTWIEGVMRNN

Substance: wild-type staphylokinase (Sak) (natural protein)
- fibrin plate assay, diameter of halo pattern (5.0 x 10^3 IU unmodified Sak, 310 K, 20 h): 25.4 mm
